Reference: PMC2542413

Assays:
[1] = biological target: YU2 gp140-F trimers (HIV-1 (primary isolate YU2) | not stated); test: SEC; gel filtration on a Superdex 200 26/60 prep grade column; trimers separated from lower molecular weight forms
[2] = biological target: soluble human 4-domain CD4 (human); test: ELISA; CD4 solution competition assay: Env trimers co-incubated with 2, 4 or 9 nM sCD4 in PBS at room temperature for 1 h; non-Env-bound sCD4 captured on plate-bound anti-CD4 RPA-T4 and detected with biotin-OKT-4

For YU2 gp140-F trimers, the stoichiometry N [1] was 3, the half-maximal binding (with 2 nM sCD4) [2] was 7 nM and the half-maximal binding (with 4 nM sCD4) [2] was 13 nM. For the same substance, the half-maximal binding (with 9 nM sCD4) [2] was 26 nM.
